Results: patent US20210032291A1, “Compstatin Analogs With Improved Pharmacokinetic Properties” (The Trustees of the University of Pennsylvania, priority 2011, published 2021)

Biological target: C3b (biotinylated, captured site-specifically on a streptavidin chip) (UniProt P01024)
Experiment: SPR (Biacore 3000), single-cycle kinetics, biotinylated C3b on streptavidin chip, peptide as analyte, 1:1 Langmuir fit

Substance	Kd [nM]	koff [s⁻¹]	kon [M⁻¹ s⁻¹]
Peptide 15: D-Phe-Ile-[Cys-Val-Trp(Me)-Gln-Asp-Trp-Sar-Ala-His-Arg-Cys]-mIle-NH2	1.1	0.0026	2.3e+06
Peptide 17: D-Cha-Ile-[Cys-Val-Trp(Me)-Gln-Asp-Trp-Sar-Ala-His-Arg-Cys]-mIle-NH2	1.5	0.0027	1.8e+06
Peptide 9: Tyr(Me)-Ile-[Cys-Val-Trp(Me)-Gln-Asp-Trp-Sar-Ala-His-Arg-Cys]-mIle-NH2	–	0.0026	2.3e+06

The remaining substances from weak to strong by Kd, led by results:

Kd [nM]	koff [s⁻¹]	kon [M⁻¹ s⁻¹]	Substance
2.5	0.0034	1.4e+06	Peptide 18: D-Ala-Ile-[Cys-Val-Trp(Me)-Gln-Asp-Trp-Sar-Ala-His-Arg-Cys]-mIle-NH2
1.2	0.0024	2e+06	Peptide 16: D-Trp-Ile-[Cys-Val-Trp(Me)-Gln-Asp-Trp-Sar-Ala-His-Arg-Cys]-mIle-NH2
